Data reported in patent US20060294608A1.

Target: CHO derived N' FLAG-mNR6 (N-terminal FLAG-tagged murine NR6) (mouse) (UniProt Q9JM58)
Test: Biosensor (BiaCore) with M2 immobilised, after passage over M2 affinity resin

UniProt Q9JM58, sequence (Q9JM58 other isoform, or with tags, fused parts or gaps limits assumed): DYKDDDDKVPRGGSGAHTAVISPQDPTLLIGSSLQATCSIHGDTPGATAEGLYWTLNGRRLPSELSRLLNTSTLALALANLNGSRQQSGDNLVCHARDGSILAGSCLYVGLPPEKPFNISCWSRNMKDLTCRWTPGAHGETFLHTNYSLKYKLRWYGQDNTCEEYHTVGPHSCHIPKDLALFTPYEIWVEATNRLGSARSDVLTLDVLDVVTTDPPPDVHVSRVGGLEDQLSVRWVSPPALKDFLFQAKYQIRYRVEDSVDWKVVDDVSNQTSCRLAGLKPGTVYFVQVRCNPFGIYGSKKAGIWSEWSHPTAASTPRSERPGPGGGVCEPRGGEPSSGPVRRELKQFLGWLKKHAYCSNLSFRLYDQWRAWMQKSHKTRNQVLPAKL

M2 binding remaining in the unbound fraction: 20%
Substance: anti FLAG peptide M2 antibody (Kodak Eastman, USA)
